Data from patent publication US20170051021A1, “PEPTIDE AGONISTS OF TOLL-LIKE RECEPTOR 5 LIGAND AND METHOD OF USE” (priority 2014, published 2017).

Columns and labels:
[1] = test system: NF-kB; test: NF-kB reporter system luciferase assay in transiently transfected CACO-2 cells; type: cell-based; details: CACO-2 cells transfected with mock vector delta NFkB-Luc
Protocol: All transfections were performed in triplicate in 24-well plates. Approximately 2×10^5 CACO-2 cells per well were seeded 24 h before transfection. Following the manufacturer's instructions, plasmids were transfected into cells using FUGENE transfection reagent (Promega, Medison, Wis.). Briefly, 0.8 μg of reporter plasmids carrying different NF-kB responsive elements (IL8-Luc, IGkB-Luc) plus 0.05 μg of pCMV-LacZ vector were diluted with Opti-MEM and then mixed with diluted liposomes. After 20 min of incubation at room temperature, the mixtures were added to each well. […] Each experiment was conducted a minimum of three times.

[2] = test system: Wistar rats; test: In vivo protective role against lethal irradiation, survival of Wistar rats; parameters: species or system rat; details: 0.1 mg/kg s.c. one hour before single total dose of 9.6 Gy, FIG. 16
Protocol: One hour later, rats were irradiated for about 30 min with a single total dose of 9.6 Gy and survival was monitored daily (FIG. 16).

B1: VINCRO1 (protein)
chain: LTIQVGANDGETIDIDLKQINSQTLSSSGSSGSSGSSIDAALAQVDALRSDLGAVQNRFNSA
modifications: left off: small tags and cut ends
[1]
  luciferase activity with mock vector (specificity control): no luciferase activity
[2]
  protection from lethal irradiation (survival): protect Wistar rats from lethal irradiation
